# Results taken from US20020115596A1 (MERK, published 2002).
# Non-standard residues stand in square brackets, D forms with d. Primed or numbered codes have the meaning given here. PEG(2)″ = polyethylene glycol containing substituent with 2 ethyleneoxy subunits; Hyp = O=C(O)[C@@H]1C[C@@H](O)CN1; Chg = N[C@H](C(=O)O)C1CCCCC1; ΔPro = O=C(O)[C@@H]1C=CCN1
# Target: free prostate specific antigen (PSA) (human, UniProt P07288 25-261)
# Experiment: cell-based or functional assay
row,Binder,Time to 50% Substrate Cleavage by PSA (Min); the cell gives the percent cleaved at 3 hours
1,Ac-[Hyp][Chg]QSSSL-OH (SMILES CC(=O)N1C[C@H](O)C[C@H]1C(=O)N[C@H](C(=O)N[C@@H](CCC(N)=O)C(=O)N[C@@H](CO)C(=O)N[C@@H](CO)C(=O)N[C@@H](CO)C(=O)N[C@@H](CC(C)C)C(=O)O)C1CCCCC1) [Ac-(4-trans-L-Hyp)ChgQ-SSSL-acid],0 % cleaved at 3 hours
2,Ac-[ΔPro]AS[Chg]QSL-OH (SMILES CC(=O)N1CC=C[C@H]1C(=O)N[C@@H](C)C(=O)N[C@@H](CO)C(=O)N[C@H](C(=O)N[C@@H](CCC(N)=O)C(=O)N[C@@H](CO)C(=O)N[C@@H](CC(C)C)C(=O)O)C1CCCCC1) [Ac-(Dehydro-Pro)-ASChgQ-SL-acid],28 % cleaved at 3 hours

# Next, values leading:
row,Time to 50% Substrate Cleavage by PSA (Min); the cell gives the percent cleaved at 3 hours,Binder
1,44 % cleaved at 3 hours,{PEG(2)″}-[Hyp]AS[Chg]QSL-OH [PEG(2)-(4-trans-L-Hyp)-ASChgQ-SL-acid]
2,16 % cleaved at 3 hours,"XASXQSX (N-terminal acetyl; 4-trans-L-Hyp (trans-4-hydroxy-L-proline) at position 1 (written X); Chg (cyclohexylglycine) at position 4 (written X); TIC (1,2,3,4-tetrahydro-3-isoquinoline carboxylic acid) at position 7 (written X); C-terminal free acid) [Ac-(4-trans-L-Hyp)ASChgQ-S(TIC)-acid]"
